Measurements: patent US20100008937A1

Columns and labels:
[1] = molecular target: human WT LFA-1 on stably transfected K562 cells (human) (UniProt P20701); assay: cell-based or functional assay
[2] = molecular target: human HA (high-affinity) LFA-1 on stably transfected K562 cells (human) (UniProt P20701); assay: cell-based or functional assay
human HA (high-affinity) LFA-1 on stably transfected K562 cells (human), sequence (P20701 26-1170 K312C/K319C limits assumed, chain 1 of 2): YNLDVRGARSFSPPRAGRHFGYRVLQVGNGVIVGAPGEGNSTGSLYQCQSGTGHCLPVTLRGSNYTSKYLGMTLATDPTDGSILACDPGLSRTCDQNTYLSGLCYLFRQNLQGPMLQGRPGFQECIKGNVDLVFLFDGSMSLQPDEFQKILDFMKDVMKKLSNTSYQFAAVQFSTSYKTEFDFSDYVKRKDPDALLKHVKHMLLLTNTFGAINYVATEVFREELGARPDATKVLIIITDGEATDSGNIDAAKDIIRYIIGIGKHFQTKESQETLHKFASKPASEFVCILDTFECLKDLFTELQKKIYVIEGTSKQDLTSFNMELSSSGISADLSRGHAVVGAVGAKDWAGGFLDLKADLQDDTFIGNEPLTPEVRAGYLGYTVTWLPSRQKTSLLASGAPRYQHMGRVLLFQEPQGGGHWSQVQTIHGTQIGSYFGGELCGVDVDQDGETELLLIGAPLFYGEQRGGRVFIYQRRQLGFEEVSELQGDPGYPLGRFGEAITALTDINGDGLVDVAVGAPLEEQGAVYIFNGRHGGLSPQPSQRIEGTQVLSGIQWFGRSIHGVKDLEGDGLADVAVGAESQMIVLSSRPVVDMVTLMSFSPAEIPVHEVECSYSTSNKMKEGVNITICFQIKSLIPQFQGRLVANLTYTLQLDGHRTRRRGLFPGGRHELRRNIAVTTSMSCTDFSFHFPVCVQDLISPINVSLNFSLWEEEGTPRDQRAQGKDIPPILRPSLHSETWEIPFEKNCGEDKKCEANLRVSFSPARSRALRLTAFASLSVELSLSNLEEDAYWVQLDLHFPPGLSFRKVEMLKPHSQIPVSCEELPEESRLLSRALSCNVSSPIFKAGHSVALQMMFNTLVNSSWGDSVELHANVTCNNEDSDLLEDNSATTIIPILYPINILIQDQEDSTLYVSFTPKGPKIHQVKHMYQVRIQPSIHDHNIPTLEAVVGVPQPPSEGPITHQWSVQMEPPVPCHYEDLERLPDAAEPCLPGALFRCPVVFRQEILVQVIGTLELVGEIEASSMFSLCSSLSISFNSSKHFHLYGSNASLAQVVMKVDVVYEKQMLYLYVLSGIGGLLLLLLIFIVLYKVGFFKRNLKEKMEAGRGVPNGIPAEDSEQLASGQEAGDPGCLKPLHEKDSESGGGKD
human HA (high-affinity) LFA-1 on stably transfected K562 cells (human), sequence (P05107 23-769 limits assumed, chain 2 of 2, further chain): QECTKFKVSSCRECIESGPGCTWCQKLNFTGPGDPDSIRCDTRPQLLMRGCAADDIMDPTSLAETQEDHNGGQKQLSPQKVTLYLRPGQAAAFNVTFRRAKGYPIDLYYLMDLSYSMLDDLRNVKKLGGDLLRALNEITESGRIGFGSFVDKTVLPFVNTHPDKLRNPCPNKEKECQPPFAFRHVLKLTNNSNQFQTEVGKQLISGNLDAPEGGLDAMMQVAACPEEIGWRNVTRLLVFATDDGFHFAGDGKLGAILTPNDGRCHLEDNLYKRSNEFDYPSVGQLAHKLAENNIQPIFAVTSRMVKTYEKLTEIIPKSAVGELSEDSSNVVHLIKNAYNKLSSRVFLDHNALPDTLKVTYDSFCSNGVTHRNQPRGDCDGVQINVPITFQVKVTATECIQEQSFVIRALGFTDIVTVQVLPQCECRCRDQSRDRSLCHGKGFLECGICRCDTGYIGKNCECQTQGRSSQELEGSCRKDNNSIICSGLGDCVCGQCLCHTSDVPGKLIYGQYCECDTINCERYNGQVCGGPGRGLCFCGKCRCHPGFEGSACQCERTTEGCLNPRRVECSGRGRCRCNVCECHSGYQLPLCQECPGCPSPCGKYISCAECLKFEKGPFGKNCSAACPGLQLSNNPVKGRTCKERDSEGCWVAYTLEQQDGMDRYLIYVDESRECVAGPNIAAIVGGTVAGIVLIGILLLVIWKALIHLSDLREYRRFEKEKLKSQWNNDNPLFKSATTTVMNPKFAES

human WT LFA-1 on stably transfected K562 cells (human), sequence (P20701 26-1170, chain 1 of 2): as the sequence (P20701 26-1170 K312C/K319C limits assumed, chain 1 of 2) above, with C287K, C294K counted along it
human WT LFA-1 on stably transfected K562 cells (human), sequence (P05107 23-769, chain 2 of 2, further chain): as the sequence (P05107 23-769 limits assumed, chain 2 of 2, further chain) above

AL-57-protamine fusion protein (scFv AL-57 fused to human protamine residues 8-29, His6 tag) (from UniProt P04553 8-29)
Cy3+ K562 cells/Total K562 cells, % (in vivo Cy3-siRNA delivery) [1]: 23.3%
Cy3+ K562 cells/Total K562 cells, % (in vivo Cy3-siRNA delivery) [2]: 88.1%

TS1/22-protamine fusion protein (scFv TS1/22 fused to human protamine residues 8-29, His6 tag) (from UniProt P04553 8-29)
Cy3+ K562 cells/Total K562 cells, % (in vivo Cy3-siRNA delivery) [1]: 88.5%
Cy3+ K562 cells/Total K562 cells, % (in vivo Cy3-siRNA delivery) [2]: 87.4%
